Laboratory results from patent US20090270325A1.

Experiments:
[1] = molecular target: human GHR on human 293 cells stably expressing the human GHR (human) (UniProt P10912)
[2] = molecular target: human GHR on human 293 cells stably expressing the human GHR (human) (UniProt P10912); remark: listed apart in the source

- concentration for the maximal response, Stat 5 luciferase-reporter assay [1]: 50 to 250 nM
- GH-specific luciferase reporter assay (bioactivity) [2]: 10%
Substance: hGH-GHR Chimera (75 kDa chimera) (from UniProt P01241)
